Changes are numbered by the printed parent chain. Names may count otherwise.
B1: ApeLiP (LiP of Agrocybe pediades) (Agrocybe pediades) (protein)
chain: AVTCPTGQTTANEACCVLFPVIDLLQEELFDGGECGEEAHAALRLAFHDAIGFSKNGGKGGGADGSILAFHQTETTYAANSGIEDIITAQLPIFQKTNLTAGDFVHLAAAIGTGNCPGSPQLAYSFGRPPPVAPAPDGTVPEPTDSVTDILARFSEAGFVTAEVIWLLASHSIAAASKIDTSAPRTPFDSTPALFDTQFYLETILNGTLLPGDGGAHTGEVLSPIAGEMRLQSDFAFAQDPRTACLWQEPINDQAFIQGKFFAAMKKLQVLGQTGLTDCSDVIPVPASLPGPITFPAGFSEADVISACTATPLPSLATIAGPKPTIPPVPL
B2: ApeLiP (LiP of Agrocybe pediades) (Agrocybe pediades; W166A) (protein)
chain: B1 chain with W166A

What was measured:
Assay in all cases: purified protein
Type in all cases: biochemical, Agrocybe pediades
purified protein [1] = substrate: CCn1c(=NN=c2sc3cc(S(=O)(=O)O)ccc3n2CC)sc2cc(S(=O)(=O)O)ccc21
purified protein [2] = substrate: COc1ccc(CO)cc1OC; conditions: pH 4.0, 25 °C, 0.4 mM H2O2, fit with substrate inhibition
purified protein [3] = substrate: COc1cccc(OC)c1O
purified protein [4] = substrate: Nc1c(N=Nc2ccc(S(=O)(=O)CCOS(=O)(=O)O)cc2)c(S(=O)(=O)O)cc2cc(S(=O)(=O)O)c(N=Nc3ccc(S(=O)(=O)CCOS(=O)(=O)O)cc3)c(O)c12; conditions: Hill n = 2.11 ± 0.30, pH 3.0, 25 °C, 0.4 mM H2O2
[5] = high-efficiency site of biphasic kinetics, Hill n = 1.62 ± 0.12, 100 mM sodium tartrate pH 3.0, 25 °C, 0.4 mM H2O2
[6] = pH 3.0, 25 °C, 0.4 mM H2O2, fit with substrate inhibition
[7] = low-efficiency site (only site left), Hill n = 1.62 ± 0.28, strong substrate inhibition, pH 3.0, 25 °C, 1 mM H2O2
[8] = pH 8.0, 25 °C, 1 mM H2O2, Michaelis-Menten fit despite substrate/product inhibition, no activity at pH 3

Protein	K0.5 (purified protein [1]; [5]) [µM]	kcat (purified protein [1]; [5]) [s⁻¹]	kcat/Km (purified protein [1]; [5]) [s⁻¹ mM⁻¹]	Km (purified protein [2])	kcat (purified protein [2]) [s⁻¹]	kcat/Km (purified protein [2]) [M⁻¹ s⁻¹]	Km (purified protein [3]; [6]) [µM]	kcat (purified protein [3]; [6]) [s⁻¹]	kcat/Km (purified protein [3]; [6]) [M⁻¹ s⁻¹]	K0.5 (purified protein [4]) [µM]	kcat (purified protein [4]) [s⁻¹]	kcat/Km (purified protein [4]) [M⁻¹ s⁻¹]	K0.5 (purified protein [1]; [7]) [µM]	kcat (purified protein [1]; [7])	kcat/Km (purified protein [1]; [7])	Km (purified protein [3]; [8]) [µM]	kcat (purified protein [3]; [8]) [s⁻¹]	kcat/Km (purified protein [3]; [8]) [M⁻¹ s⁻¹]
B1	8.1 ± 0.6	42 ± 1.8	5130 ± 460	(29.6 ± 4.6) × 10^3 µM	4.3 ± 0.3	150 ± 30	37 ± 5.6	68.6 ± 2.8	1.91e+06 ± 310000	14 ± 1.4	21 ± 1.5	1.54e+06 ± 115000	–	–	–	–	–	–
B2	–	–	–	–	–	–	–	–	–	–	–	–	1150 ± 190	117 ± 10 ^c s^-1	102 ± 19 ^c s^-1·mM^-1	49 ± 8.2	6.1 ± 0.27	125000 ± 22000
